Results as given in patent US20240182575A1 (Ablynx, published 2024).
Residue numbers refer to the chain shown, from its start.

T1: cynomolgus monkey CTLA4 on stably transfected CHO-K1 cells (human CTLA4 cDNA with S13N, I17T and L105M) (human backbone with cynomolgus monkey …, UniProt P16410 36-223)
T1 chain: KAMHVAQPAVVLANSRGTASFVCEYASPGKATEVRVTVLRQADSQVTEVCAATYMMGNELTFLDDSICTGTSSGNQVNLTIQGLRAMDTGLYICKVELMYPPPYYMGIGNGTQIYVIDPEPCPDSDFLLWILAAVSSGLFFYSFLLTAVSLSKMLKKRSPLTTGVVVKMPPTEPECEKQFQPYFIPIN

B1: 4CTLAPMP02A5 (VHH)
VHH: EVQLVESGGGLVQAGGSLRLSCAASGRTNSTTLMGWSRRAPGKEREFVAAISGSGTLTSYADSVKGRFAISRDNAKNTVYLQMNSLKPEDTAIYYCAAGLTSWALIPSRTLTTWGQGTQVTVSS
notes: short label tied to the entry by the clone code only; not shown: C-terminal c-myc tag and His6 tag
B2: 4CTLAPMP03C4 (VHH)
VHH: EVQLVESGGGLVQAGGSLRLSCAASGGTFSFYGMGWFRQAPGKEREFVADIRTSAGRTYYADSVKGRFTISRDNAKNTVYLQMNSLKPEDTAVYYCAAEMSGISGWDYWGQGTQVTVSS
notes: as for B1
B3: 4CTLAPMP06C10 (VHH)
VHH: EVQLVESGGGLVQAGGSLRLSCAASGRTFSNYTIAYFRQAPGREREFAAAISPHGTLRSFADSVKDRFTISRDNAKNTVWLQMNSLKLEDTAVYYCAADPSGWGLRQHSENEYPYWGLGTQVTVSS
notes: as for B1
B4: 4CTLAPMP11E3 (VHH)
VHH: EVQLVESGGGLVEPGGSLRLSCAASGSISSYNVMGWYRQAPGQQRDLVAHIASNGEIMYADSAKGRFTISRDNAKKTVYLQMNSLKPEDTAVYYCKLWVLGNDYWGQGTQVTVSS
notes: also called 11E3 WT; not shown: C-terminal c-myc tag and His6 tag
B5: 4CTLAPMP12H2 (VHH)
VHH: B4 VHH with G108R
notes: as for B1
B6: 4CTLAPMP10G5 (VHH)
VHH: EVQLVESGGGLVQAGGSLRLSCAASGGTFSRYIMAWFRQAPGKEREFVAVIDGSGYSTDYAGSVKGRFTIARDNTKNTAYLQMNSLKPEDTALYFCGAGRQYSTGPYWYDYWGQGTQVTVSS
notes: as for B1
B7: 4CTLAPMP13B2 (VHH)
VHH: EVQLVESGGGLVQPGGSLRLSCVASGIHFAISTINWYRQAPGKQRESVAAITGTSVTGYADSVKGRFTLSRDNAKNTVYLQMDNLKPEDTAVYYCNVWSGRDYWGQGTQVTVSS
notes: as for B1
B8: 4CTLAPMP17E3 (VHH)
VHH: EVQLMESGGGLVTAGGSLRLSCAASGGTFGHYAMAWFRRPPGNEREFVAGIGWTYTTFYADSVKGRFAISRDNAENTVYLQMNNLKPDDTAVYYCAAAELKGRNLRVPDYEHWGQGTQVTVSS
notes: as for B1
B9: 4CTLAPMP02C11 (VHH)
VHH: EVQLVESGGGLVQPGGSLRLSCAASGNIFTRHIMGWYRQAPGKQRELVASITPGDNINYADSVKGRFTISRDGAKNTVYLQMNSLKPEDTAVYYCNAHGSILLDRTNYWGQGTQVTVSS
notes: as for B1
B10: 4CTLAPMP08E5 (VHH)
VHH: B9 VHH with G26R, N27D, H32N, E46D, D55G, I57M, N58Y, T106S
notes: label 8E5.4 tied to 4CTLAPMP08E5 by the clone code only; the suffix .4 is not explained; also called 8E5.4; not shown: C-terminal c-myc tag and His6 tag
B11: 4CTLAPMP03A6 (VHH)
VHH: EVQLVESGGGLVQPGGSLRLSCAAPGRTFSNYAMGWFRQAPGKGREFVADIRWSDGRTYYADSVKGRFTVSRDNAKNTVYLQMNSLKPEDTAVYYCAAQGGVLSGWDYWGQGTQVTVSS
notes: as for B1

Biological target: T1, cynomolgus monkey CTLA4 on stably …
Assay: FACS, direct binding titration on cyno CTLA4 CHO cells (head prints IC50)

Binder	IC50 [nM]
B1	7.74
B2	6.73
B3	5.47
B4	4.5
B5	5.65

The binders below were run against T2, human CTLA4 (Y201 mutated to valine) on stably transfected CHO-K1 cells (human, UniProt P16410 36-223) (assay: FACS, direct binding titration on human CTLA4 CHO cells (head prints IC50)).
T2 construct: whole, on cells; the mutation of the intracellular position Y201 keeps the protein on the membrane; also called human CTLA4 overexpressing CHO cells; human CTLA4 transfectant
Procedure: Binding of putative CTLA4 reactive Nanobodies clones was detected using unlabeled anti-c-myc tag mouse monoclonal antibody 9E10, followed by a phycoerythrin conjugated F(ab′)2 derived from goat-anti-mouse IgG (human and bovine crossabsorbed), and read on a BD FACSarray instrument. Dead cells were excluded from the analysis by gating out TOPRO3 vital dye positive scoring cells. Binding of the Nanobodies to cells was evaluated in BD FACSarray control software as PE channel histograms.

T2 sequence (P16410 other isoform, or with tags, fused parts or gaps, change not shown): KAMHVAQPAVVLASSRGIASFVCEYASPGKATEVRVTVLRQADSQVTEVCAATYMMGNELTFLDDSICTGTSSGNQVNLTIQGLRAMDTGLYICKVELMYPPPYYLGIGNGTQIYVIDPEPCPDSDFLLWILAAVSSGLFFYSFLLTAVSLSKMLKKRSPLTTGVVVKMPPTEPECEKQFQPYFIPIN

Binder	IC50 [nM]
B1	5.72
B2	8.06
B3	5.73
B6	4.65
B4	4.91
B5	5.82
B7	3.6
B8	11.2

These binders were tested against T3, HuCTLA4-HuIgG1 (fusion protein of the extracellular part of human CD152 and human Fc gamma 1, CTLA4-Ig) (human, UniProt P16410 36-161) (assay: SPR, Biacore T100, CTLA4-Ig amine-coupled).
T3 construct: extracellular domain; also called CTLA4-hFc; CTLA4-Fc; not shown: human Fc gamma 1
Procedure: Affinity constants (Kd) of individual purified Nanobody clones were determined by surface plasmon resonance on a Biacore T100 instrument. […] Remaining reactive groups were inactivated using ethanolamine. […] Each sample was injected for 2 min at a flow rate of 45 μl/min to allow for binding to chip-bound antigen. Next, binding buffer without Nanobody was sent over the chip at the same flow rate to allow for dissociation of bound Nanobody. After 2 min, remaining bound analyte was removed by injecting regeneration solution (10 mM Glycine/HCl pH 1.5). Binding curves obtained at different concentrations of Nanobody were used to calculate KD values. For some clones, only a single undetermined concentrations of Nanobody was injected.

T3 sequence (P16410 36-161 limits assumed): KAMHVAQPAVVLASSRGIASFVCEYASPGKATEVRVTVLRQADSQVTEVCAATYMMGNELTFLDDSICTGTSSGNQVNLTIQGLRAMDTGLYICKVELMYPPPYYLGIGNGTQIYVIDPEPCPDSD

Binder	koff [s⁻¹]	Kd [nM]	kon [M⁻¹ s⁻¹]
B1	0.0053	–	–
B9	0.0235	–	–
B10	0.00386	–	–
B11	0.0018	–	–
B2	0.0205	–	–
B3	0.00279	–	–
B6	0.00618	–	–
B4	0.00496	10	742000
B5	0.00258	7.52	349000
B7	0.0067	–	–
B8	0.00489	–	–
